Here are results for 2 molecules from US6958240, “Inhibition of major groove DNA binding proteins by modified polyamides” (California Instiute of Technology).

The target in data set [1] is T1, GCN4 (222-281), bZIP DNA-binding domain (UniProt P03069 P03069:222-281). The data set is described as follows: EMSA; bound near saturation at 200 nM GCN4; 10 mM bisTris pH 7.0, 100 mM NaCl, 1 mM DTT, 1 mM EDTA, 50 ug/mL poly(dI-dC), 22 C; inhibited by polyamides 3, 5 and 13, not by 1 or 4. Particulars: protein: synthetic; tags: none; prepared by solid phase peptide synthesis; chain copies: 2 (inferred); label: 5'-32P. On the procedure:
(§1) For gel mobility shifts, polyamide was incubated with radiolabeled synthetic DNA duplex (10 kcpm) in 40 µL reaction volumes of bisTris (10 mM, pH 7.0), NaCl (100 mM), DTT (1 mM), EDTA (1 mM), and poly(dI-dC)·poly(dI-dC) (50 µg/mL) for 16 hours at 22° C. (20 mM MOPS, pH 7.0, 140 mM KCl, 10 mM NaCl, 1 mM MgCl_2, 1 mM spermine was used to model ionic conditions in vivo). GCN4 (222–281) was added and equilibrated for 30 minutes. Loading buffer (15% Ficoll, 0.025% bromophenol blue) (10 µL) was added and 10 µL was immediately loaded onto a running 8% (29:1, acrylamide:bis-acrylamide) polyacrylamide gel (0.5×TBE, 280 V, 0.8 mm, 13 cm). Sufficient separation of the free DNA and the DNA·GCN4 (222–281) complexes was achieved within 45 minutes. Gels were dried and exposed to a storage phosphor screen (Molecular Dynamics) (Johnston, et al. (1990) *Electrophoresis* 11, 355).
(§2) ImPyPyPy-γ-PyPyPyPy-β-polyamides (1 and 3) target the six base pair 5'-TGTTAT-3' site adjacent to the GCN4 binding site of ARE-1 (FIG. 6). ImImPyPy-γ-ImPyPyPy-β-polyamides (2 and 4) were designed to bind 5'-TGGTCT-3' adjacent to the GCN4 site in ARE-2 (FIG. 6).
(§3) The ability of polyamides to inhibit GCN4 (222–281) binding was evaluated using the gel mobility shift assay. […]
For orientation: Mobility shift assays separate free from complexed probe on a gel.

Data set [2] concerns the target T1, GCN4 (222-281), bZIP DNA-binding domain. The data set is described as follows: EMSA; bound near saturation at 200 nM GCN4; same buffer, 22 C; inhibited by matched polyamides 4 and 6, not by 2 or 3. As to conditions: protein: synthetic; tags: none; prepared by solid phase peptide synthesis; chain copies: 2 (inferred); label: 5'-32P. The protocol:
as §1, §2, §3

T1 sequence (P03069 222-281, one chain of several): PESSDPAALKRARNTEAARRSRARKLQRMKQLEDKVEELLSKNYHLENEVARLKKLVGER

B1: ARE-1 (dsDNA)
DNA 1: CCGGATCCATGGTTGCTGACTAATTGTTATCCTCTAGAGTCGACC
DNA 2: GGTCGACTCTAGAGGATAACAATTAGTCAGCAACCATGGATCCGG
In the case of B1, the binding result in data set [1] is listed as “binds”.

B2: ARE-2 (dsDNA)
DNA 1: CCGGATCCATGGTTGCTGACTAATTGGTCTCCTCTAGAGTCGACC
DNA 2: GGTCGACTCTAGAGGAGACCAATTAGTCAGCAACCATGGATCCGG
With B2, in data set [2], the binding result was “binds”.
